A short description of the series: self-splicing fitness, log relative to wild type (ln ratio); higher = more splicing; Tetrahymena group I intron in knt gene, E. coli kanamycin selection, DiMSum; sequences stand for … in CUCUCU…GGAGGGAAAAGUUAUCAGGCAUGCACCUGGUAGCUAGUCUUUAAACCAAUAGAUUGCAUCGGUUUAAAAGGCAAGACCGUCAAAUUGCGGGAAAGGGGUCAACAGCCGUUCAGUACCAAGUCUCAGGGGAAACUUUGAGAUGGCCUUGCAAAGGGUAUGGUAAUAAGCUGACGGACAUGGUCCUAACCACGCAGCCAAGUCCUAAGUCAACAGAUCUUCUGUUGAUAUGGAUGCAGUUCACAGACUAAAUGUCGGUCGGGGAAGAUGUAUUCUUCUCAUAAGAUAUAGUCGGACCUCUCCUUAAUGGGAGCUAGCGGAUGAAGUGAUGCAACACUGGAGCCGCUGGGAACUAAUUUGUAUGCGAAAGUAUAUUGAUUAGUUUUGGAGUACUCGUGGUCG
In short, it runs like this:
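Library with all eight P1ex-region intron nucleotides randomised, intron inside the knt kanamycin-resistance gene on pET-22b(+), in E. coli BL21(DE3). Cells grew overnight at 37°C or 30°C on LB agar with or without 25 μg/mL kanamycin (plus 100 μg/mL carbenicillin, 50 μM IPTG, 0.2% rhamnose), in six replicate transformations. Pooled colonies were amplicon-sequenced on Illumina HiSeq 2500. DiMSum fitness is the error-weighted combination of wild-type-normalised replicate fold changes, kanamycin versus none.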

± gives the uncertainty stated by the source.

As for GCCCAGCAAUAUUACGACUG, the “self-splicing fitness (ln)” value (30 °C) is -4.23 ± 0.22 and the “self-splicing fitness (ln)” value (37 °C) is -2.44 ± 0.19.
For GCCCAGCAAUAUUACGAGAA, the “self-splicing fitness (ln)” value (30 °C) was -0.685 ± 0.28 and the “self-splicing fitness (ln)” value (37 °C) was -0.511 ± 0.21.
For GCCCAGCAAUAUUACGAUCU, in that order: -1.36 ± 0.092 and -1.47 ± 0.12.
GCCCAGCAAUAUUACGCAAA: the “self-splicing fitness (ln)” value (30 °C) was -2.41 ± 0.14 and the “self-splicing fitness (ln)” value (37 °C) is -1.3 ± 0.11.
As to GCCCAGCAAUAUUACGCCCU, the “self-splicing fitness (ln)” value (30 °C) was -0.933 ± 0.12 and the “self-splicing fitness (ln)” value (37 °C) was -0.685 ± 0.16.
With GCCCAGCAAUAUUACGCCGU, the “self-splicing fitness (ln)” value (30 °C) is -0.724 ± 0.092 and the “self-splicing fitness (ln)” value (37 °C) was -0.492 ± 0.094.
On to GCCCAGCAAUAUUACGCCUA, for which the “self-splicing fitness (ln)” value runs as follows: (30 °C) -1.9 ± 0.18; (37 °C) -0.261 ± 0.12.
Regarding GCCCAGCAAUAUUACGCGGU, the “self-splicing fitness (ln)” value is, setting by setting: (30 °C) -3.33 ± 0.16; (37 °C) -3.02 ± 0.19.
Consider GCCCAGCAAUAUUACGCUCG, for which the “self-splicing fitness (ln)” value is -3.45 ± 0.24 (30 °C) and -2.34 ± 0.27 (37 °C).
Regarding GCCCAGCAAUAUUACGCUGC, the “self-splicing fitness (ln)” value (37 °C) was -1.55 ± 0.41.
Regarding GCCCAGCAAUAUUACGCUUA, the “self-splicing fitness (ln)” value is -0.569 ± 0.071 (30 °C) and -0.378 ± 0.08 (37 °C).
For GCCCAGCAAUAUUACGCUUU, in that order: 0.177 ± 0.056 and 0.242 ± 0.074.
Regarding GCCCAGCAAUAUUACGGACA, the “self-splicing fitness (ln)” value reads like this: (30 °C) -0.873 ± 0.12; (37 °C) -0.931 ± 0.13.
On to GCCCAGCAAUAUUACGGAGG, for which the “self-splicing fitness (ln)” value reads like this: (30 °C) -4.2 ± 0.15; (37 °C) -2.51 ± 0.13.
For GCCCAGCAAUAUUACGGGCC, in that order: -3.22 ± 0.13 and -2.58 ± 0.26.
For GCCCAGCAAUAUUACGGGGU, in that order: -3.84 ± 0.19 and -2.77 ± 0.24.
GCCCAGCAAUAUUACGGUCA: the “self-splicing fitness (ln)” value runs as follows: (30 °C) -0.8 ± 0.071; (37 °C) -0.326 ± 0.074.
In the case of GCCCAGCAAUAUUACGGUGG, the “self-splicing fitness (ln)” value reads like this: (30 °C) -3.21 ± 0.17; (37 °C) -3.59 ± 0.25.
For the sequence GCCCAGCAAUAUUACGUACG, the “self-splicing fitness (ln)” value by setting is: (30 °C) -3.98 ± 0.37; (37 °C) -1.41 ± 0.18.
For GCCCAGCAAUAUUACGUAGG, in that order: -2.35 ± 0.24 and -2.15 ± 0.2.
As to GCCCAGCAAUAUUACGUCGG, the “self-splicing fitness (ln)” value by setting is: (30 °C) -3.13 ± 0.13; (37 °C) -3.08 ± 0.2.
Consider GCCCAGCAAUAUUACGUUAA, for which the “self-splicing fitness (ln)” value is, setting by setting: (30 °C) -1.6 ± 0.097; (37 °C) -1.01 ± 0.089.
For GCCGAGCAAUAUUACGAAGG, the “self-splicing fitness (ln)” value by setting is: (30 °C) -3.25 ± 0.24; (37 °C) -2.12 ± 0.49.
Consider GCCGAGCAAUAUUACGAAUC, for which the “self-splicing fitness (ln)” value is, setting by setting: (30 °C) -1.68 ± 0.11; (37 °C) -0.92 ± 0.12.
The corresponding values for GCCGAGCAAUAUUACGACAA are -3.38 ± 0.34 and -2.05 ± 0.24.
For the sequence GCCGAGCAAUAUUACGAGAG, the “self-splicing fitness (ln)” value is, setting by setting: (30 °C) -3.14 ± 0.3; (37 °C) -0.44 ± 0.19.
For GCCGAGCAAUAUUACGAGCC, the “self-splicing fitness (ln)” value is -3.06 ± 0.14 (30 °C) and -2.3 ± 0.24 (37 °C).
In the case of GCCGAGCAAUAUUACGCACG, the “self-splicing fitness (ln)” value is -3.74 ± 0.35 (30 °C) and -1.49 ± 0.36 (37 °C).
For GCCGAGCAAUAUUACGCAUA, the “self-splicing fitness (ln)” value (30 °C) is -3.39 ± 0.22 and the “self-splicing fitness (ln)” value (37 °C) is -1.41 ± 0.16.
Consider GCCGAGCAAUAUUACGCCUA, for which the “self-splicing fitness (ln)” value is -2.44 ± 0.2 (30 °C) and -1.58 ± 0.16 (37 °C).
In the case of GCCGAGCAAUAUUACGCGGC, where the note is “37 °C”, the “self-splicing fitness (ln)” value was -2.33 ± 0.36.
For the sequence GCCGAGCAAUAUUACGCUGC, the “self-splicing fitness (ln)” value is -4.22 ± 0.36 (30 °C) and -2.81 ± 0.25 (37 °C).
Turning to GCCGAGCAAUAUUACGGAAG, the “self-splicing fitness (ln)” value (30 °C) is -2.65 ± 0.23 and the “self-splicing fitness (ln)” value (37 °C) was -0.897 ± 0.15.
For GCCGAGCAAUAUUACGGCGG, the “self-splicing fitness (ln)” value was -2.62 ± 0.21 (30 °C) and -1.91 ± 0.3 (37 °C).
GCCGAGCAAUAUUACGGGCC: the “self-splicing fitness (ln)” value was -3.59 ± 0.32 (30 °C) and -1.99 ± 0.41 (37 °C).
For GCCGAGCAAUAUUACGGUGA, the “self-splicing fitness (ln)” value runs as follows: (30 °C) -1.49 ± 0.088; (37 °C) -0.176 ± 0.095.
As for GCCGAGCAAUAUUACGGUUC, the “self-splicing fitness (ln)” value reads like this: (30 °C) -4.42 ± 0.3; (37 °C) -1.79 ± 0.26.
The corresponding values for GCCGAGCAAUAUUACGUACA are -2.85 ± 0.18 and -1.85 ± 0.17.

Values taken from the supplement of paper PMC7877785.
